{
  "source": "paper PMC5501851",
  "about": "“A tyrosine aminotransferase involved in rosmarinic acid biosynthesis in Prunella vulgaris L” (Scientific Reports, 2017)",
  "key": {"[1]": {"target": "T1, PvTAT (tyrosine aminotransferase of Prunella vulgaris) (Prunella vulgaris, UniProt A0A0U1ZFM1)", "T1 construct": "gene tat; E. coli Rosetta (DE3); cloning primers translate to N-terminus MELQSSAQ and C-terminus FCERHSY", "assay": "phenylpyruvate absorbance at […] nm, nonlinear Michaelis-Menten fit", "assay_type": "biochemical", "settings": "10 mM α-ketoglutarate; 0.1 mM PLP, 0.75 mM EDTA, 125 mM potassium phosphate pH 8.0, 30 °C"}, "purified protein [2]": {"substrate": "O=C(O)C(=O)Cc1ccc(O)cc1", "assay": "purified protein", "assay_type": "biochemical, Prunella vulgaris", "settings": "10 mM L-Glu as amino donor, 0.3 mM NAD, 0.3 mM CoA, 0.75 mM EDTA, 125 mM potassium phosphate pH 8.0, 30 °C"}, "purified protein [3]": {"substrate": "O=C(O)CCC(=O)C(=O)O", "assay": "purified protein", "assay_type": "biochemical, Prunella vulgaris", "settings": "5.5 mM L-Tyr as amino donor, 0.1 mM PLP, 0.75 mM EDTA, 125 mM potassium phosphate pH 8.0, 30 °C"}, "purified protein [4]": {"substrate": "CC(=O)C(=O)O", "assay": "purified protein", "assay_type": "biochemical, Prunella vulgaris", "settings": "5.5 mM L-Tyr as amino donor, 0.1 mM PLP, 0.75 mM EDTA, 125 mM potassium phosphate pH 8.0, 30 °C"}, "purified protein [5]": {"substrate": "O=C(O)CC(=O)C(=O)O", "assay": "purified protein", "assay_type": "biochemical, Prunella vulgaris", "settings": "5.5 mM L-Tyr as amino donor, 0.1 mM PLP, 0.75 mM EDTA, 125 mM potassium phosphate pH 8.0, 30 °C"}, "purified protein [6]": {"substrate": "N[C@@H](Cc1c[nH]c2ccccc12)C(=O)O", "assay": "purified protein", "assay_type": "biochemical, Prunella vulgaris", "settings": "10 mM α-ketoglutarate, 0.1 mM PLP, 0.75 mM EDTA, 125 mM potassium phosphate pH 8.0, 30 °C"}, "purified protein [7]": {"substrate": "O=C(O)C(=O)Cc1ccccc1", "assay": "purified protein", "assay_type": "biochemical, Prunella vulgaris", "settings": "5.5 mM L-Tyr as amino donor, 0.1 mM PLP, 0.75 mM EDTA, 125 mM potassium phosphate pH 8.0, 30 °C"}, "purified protein [8]": {"substrate": "N[C@@H](Cc1ccc(O)cc1)C(=O)O", "assay": "purified protein", "assay_type": "biochemical, Prunella vulgaris", "settings": "10 mM α-ketoglutarate, 0.1 mM PLP, 0.75 mM EDTA, 125 mM potassium phosphate pH 8.0, 30 °C"}},
  "data": [
    {"molecule": "N[C@@H](Cc1ccccc1)C(=O)O", "note": "[L-Phe]", "values": [
      {"measurement": "Km", "setting": "[1]", "value": "10.2 ± 0.05", "unit": "mM"}
    ]},
    {"molecule": "PvTAT (tyrosine aminotransferase of Prunella vulgaris) (Prunella vulgaris) (protein, E. coli Rosetta (DE3); cloning primers translate to N-terminus MELQSSAQ and C-terminus FCERHSY) MELQSSAQELDAPTTITIKGILGLLVSSTDAKETGKRVISLGIGDPTAYSCFHVSNAAQEAVVEALRSQKFNGYAPTAGLPQAREAIAEYLSRDLPYKLPADSVYVTAGCTQAIEIALSVLARPGCNILLPRPCFPIYGLCASFRNIEVRYFDLHPEKGWEVDLDAVQDLADHNTVAMVIINPGNPCGNVYSHQHLRKVAEMAKRLGIVVIADEVYGQLAFGANPFVPMGIFGSIAPVVTLGSLSKRWLIPGWRLGWLVINDPDGSLMSPKFVERIKKYCDINGGPATFIQAAVPEIIEQTQEVFFRKTINILKQTSDICYQKVEDINGISCPTKPKGAMAFMVKLNISQMKDISDDIDFCFKLAKEESVIILPGIAVGLKNWIRITFAVEPSALEEAMERLKSFCERHSY", "values": [
      {"measurement": "Km", "setting": "purified protein [2]", "value": "0.48 ± 0.004", "unit": "mM"},
      {"measurement": "Vmax", "setting": "purified protein [2]", "value": 0.18, "unit": "µmol/min/mg"},
      {"measurement": "kcat", "setting": "purified protein [2]", "value": "0.121 ± 0.01", "unit": "s⁻¹"},
      {"measurement": "kcat/Km", "setting": "purified protein [2]", "value": "295 ± 35", "unit": "M⁻¹ s⁻¹"},
      {"measurement": "Km", "setting": "purified protein [3]", "value": "10.80 ± 0.19", "unit": "mM"},
      {"measurement": "Vmax", "setting": "purified protein [3]", "value": 0.92, "unit": "µmol/min/mg"},
      {"measurement": "kcat", "setting": "purified protein [3]", "value": "0.63 ± 0.002", "unit": "s⁻¹"},
      {"measurement": "kcat/Km", "setting": "purified protein [3]", "value": "60 ± 8", "unit": "M⁻¹ s⁻¹"},
      {"measurement": "Km", "setting": "purified protein [4]", "value": "52.06 ± 1.38", "unit": "mM"},
      {"measurement": "Vmax", "setting": "purified protein [4]", "value": 1.3, "unit": "µmol/min/mg"},
      {"measurement": "kcat", "setting": "purified protein [4]", "value": "0.89 ± 0.01", "unit": "s⁻¹"},
      {"measurement": "kcat/Km", "setting": "purified protein [4]", "value": "20 ± 3", "unit": "M⁻¹ s⁻¹"},
      {"measurement": "Km", "setting": "purified protein [5]", "value": "4.72 ± 0.05", "unit": "mM"},
      {"measurement": "Vmax", "setting": "purified protein [5]", "value": 1.06, "unit": "µmol/min/mg"},
      {"measurement": "kcat", "setting": "purified protein [5]", "value": "0.73 ± 0.01", "unit": "s⁻¹"},
      {"measurement": "kcat/Km", "setting": "purified protein [5]", "value": "150 ± 5", "unit": "M⁻¹ s⁻¹"},
      {"measurement": "Km", "setting": "purified protein [6]", "value": "8.14 ± 1.04", "unit": "mM"},
      {"measurement": "Vmax", "setting": "purified protein [6]", "value": 1.53, "unit": "µmol/min/mg"},
      {"measurement": "kcat", "setting": "purified protein [6]", "value": "1.05 ± 0.08", "unit": "s⁻¹"},
      {"measurement": "kcat/Km", "setting": "purified protein [6]", "value": "130 ± 8", "unit": "M⁻¹ s⁻¹"},
      {"measurement": "Km", "setting": "purified protein [7]", "value": "3.90 ± 0.067", "unit": "mM"},
      {"measurement": "Vmax", "setting": "purified protein [7]", "value": 0.43, "unit": "µmol/min/mg"},
      {"measurement": "kcat", "setting": "purified protein [7]", "value": "0.3 ± 0.01", "unit": "s⁻¹"},
      {"measurement": "kcat/Km", "setting": "purified protein [7]", "value": "76 ± 1", "unit": "M⁻¹ s⁻¹"},
      {"measurement": "Km", "setting": "purified protein [8]", "value": "0.40 ± 0.05", "unit": "mM"},
      {"measurement": "Vmax", "setting": "purified protein [8]", "value": 1.74, "unit": "µmol/min/mg"},
      {"measurement": "kcat", "setting": "purified protein [8]", "value": "1.19 ± 0.009", "unit": "s⁻¹"},
      {"measurement": "kcat/Km", "setting": "purified protein [8]", "value": "3030 ± 350", "unit": "M⁻¹ s⁻¹"}
    ]}
  ]
}
